Source: patent US12269859B2, “Synthetic immune receptors and methods of use thereof” (Angeles Therapeutics, Inc., priority 2016, dated 2025)

Experiments:
RAJI cells = assay: RAJI xenograft model of lymphoma in NSG mice (survival); assay type: in vivo; conditions: 200 ng/mouse intraperitoneal three times, with SIR-T cells
Protocol: In vivo efficacy of SIR targeting CD19. […] SIR constructs and Gluc-PAC-G07 control construct encoding non-secretory form of Guassia Luciferase. Approximately half the cells were selected with puromycin while the other half was expanded without puromycin selection. NSG mice (Jackson Lab) were sub-lethally irradiated at a dose of 175 cGy. Approximately 24 hours post irradiation (day 2), mice were injected with 2.5×10^4 RAJI cells via tail-vein. […] Control mice (n=5) received no T cells or uninfected T cells. Mice were given human IL2 (400 IU intraperitoneally) on alternate days till the death of all mice in control group.
Approximately half the cells were selected with puromycin while the other half was expanded without puromycin selection. NSG mice (Jackson Lab) were sub-lethally irradiated at a dose of 175 cGy. Approximately 24 hours post irradiation (day 2), mice were injected with 2.5×10^4 RAJI cells via tail-vein. […] Control mice (n=5) received no T cells or uninfected T cells. Mice were given human IL2 (400 IU intraperitoneally) on alternate days till the death of all mice in control group.
SIR construct. NSG mice (Jackson Lab) were sub-lethally irradiated at a dose of 175 cGy. Approximately 24 hours post irradiation (day 2), mice were injected with 2.5×10^4 RAJI cells via tail-vein. […] SIR encoding lentivirus. […]

[1] = tested on: target antigen-expressing cell line; assay: Jurkat NFAT-GFP assay, coculture with target cell lines expressing the respective target antigen (summary Table 10A); assay type: cell-based, human; parameters: key: The signs +/−, +, 2+ etc. after the name of the cell lines indicate the relative degree of positivity on the Jurkat-NFAT-GFP assay as measured by the % GFP positive cells; +: relative degree of positivity on the Jurkat-NFAT-GFP assay as measured by the % GFP positive cells; 2+: relative degree of positivity on the Jurkat-NFAT-GFP assay as measured by the % GFP positive cells
Procedure, shortened: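 Readout is % GFP+ cells by FACS, graded +/− to 2+ relative to parental reporter cells. Jurkat-NFAT-GFP cells stably transduced with SIR constructs (puromycin-selected) were mixed with target-antigen-expressing cell lines at roughly 1:2 effector:target and cocultured ~4–18 h.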

SKOV-3 cells = assay: SKOV-3 intraperitoneal xenograft in NSG mice (survival); assay type: in vivo; conditions: NSG mice (n = 3), 1×10^6 SKOV-3 cells intraperitoneally, 5 million T cells intravenously
Protocol: Human peripheral blood T cells isolated using CD3 magnetic beads were infected with lentiviruses expressing the indicated SIR constructs targeting Folate receptor 1 (FR1), L1CAM and Epcam1. On day 1, the NSG mice were sub-lethally irradiated at a dose of 175 cGy. 24 hours post irradiation (day 2), mice were injected with 1×10^6 SKOV-3 cells intraperitoneally. On day 3, the mice were treated intravenously with 5 million indicated CAR-T cells. Beginning On day 4, mice were injected with human IL-2 i.p. at a dose of 400 IU/mice every alternate day after the injection CAR-T cells till the death of all mice in control group.

Molecule | tumor rejection and survival (in words) (RAJI cells) | NFAT-GFP ASSAY Positive Cell lines ([1]; coculture with A549 cells) | NFAT-GFP ASSAY Positive Cell lines ([1]; coculture with PC3 cells) | NFAT-GFP ASSAY Positive Cell lines ([1]; coculture with SKOV3 cells) | Median Survival (SKOV-3 cells) | NFAT-GFP ASSAY Positive Cell lines ([1]; coculture with LoVo cells)
IL-7: exogenous recombinant human IL-7 (protein, UniProt P13232 26-177, looked up) Interleukin-7: DCDIEGKDGKQYESVLMVSIDQLLDSMKEIGSNCLNNEFNFFKRHICDANKEGMFLFRAARKLRQFLKMNSTGDFDLHLLKVSEGTTILLNCTGQVKGRKPAALGEAQPTKSLEENKSLKEQKKLNDLCFLKRLLQEIKTCWNKILMGTKEH | reject their tumor and survive longer |  |  |  |  | 
121815-C05 (protein, Synthetic Immune Receptor (SIR)) MALPVTALLLPLALLLHAARPDELQMTQSPSSLSASVGDRVTITCRASQSISSYLNWYQQKPGQPPKLLIYWASTRESGVPDRFSGSESGTNYTLTISSLQPEDFATYFCQQSDSLPITFGQGTRLDIQLEGKPIPNPLLGLDSTGSGEDLKNVFPPEVAVFEPSKAEIAHTQKATLVCLATGFYPDHVELSWWVNGKEVHSGVCTDPQPLKEQPALNDSRYCLSSRLRVSATFWQNPRNHFRCQVQFYGLSENDEWTQDRAKPVTQIVSAEAWGRADCGITSASYHQGVLSATILYEILLGKATLYAVLVSALVLMAMVKRKDSRGRAKRSGSGATNFSLLKQAGDVEENPGPTSMDWIWRILFLVGAATGAHSFEEVQLLESGGGVVQPGRSLRLSCAASGFTFSSYGMHWVRQAPGKGLEWVAVISYDGSNKYYADSVKGRFTISRDNSKNTLYLQMNSLRAEDTAVYYCAKDMGWGSGWRPYYYYGMDVWGQGTTVTVSSTREQKLISEEDGSGIQNPDPAVYQLRDSKSSDKSVCLFTDFDSQTNVSQSKDSDVYITDKCVLDMRSMDFKSNSAVAWSNKSDFACANAFNNSIIPEDTFFPSSDVPCDVKLVEKSFETDTNLNFQNLSVIGFRILLLKVAGFNLLMTLRLWSSRAKRSGSGVKQTLNFDLLKLAGDVESNPGPSRGHMTEYKPTVRLATRDDVPRAVRTLAAAFADYPATRHTVDPDRHIERVTELQELFLTRVGLDIGKVWVADDGAAVAVWTTPESVEAGAVFAEIGPRMAELSGSRLAAQQQMEGLLAPHRPKEPAWFLATVGVSPDHQGKGLGSAVVLPGVEAAERAGVPAFLETSAPRNLPFYERLGFTVTADVEVPEGPRTWCMTRKPGA |  | A549 (2+), Hela | 2+ | (+) | 63 days | 
010716-G03 (protein, Synthetic Immune Receptor (SIR)) MALPVTALLLPLALLLHAARPDIQMTQSFSSLSASVGDRVTITCRASQDISNYLNWYQQKPGKAPKLLIYYTSRLHSGVPSRFSGSGSGTDYTLTISSLQPEDFATYFCQQGNTLPWTFGGGTKLEIKRLEGKPIPNPLLGLDSTGSGEDLKNVFPPEVAVFEPSKAEIAHTQKATLVCLATGFYPDHVELSWWVNGKEVHSGVCTDPQPLKEQPALNDSRYCLSSRLRVSATFWQNPRNHFRCQVQFYGLSENDEWTQDRAKPVTQIVSAEAWGRADCGITSASYHQGVLSATILYEILLGKATLYAVLVSALVLMAMVKRKDSRGRAKRSGSGATNFSLLKQAGDVEENPGPTSMDWIWRILFLVGAATGAHSFEEVQLVQSGGGLVQSGGSLRLSCRASGYTFTRYWMLWVRQRPGKGLEWVAEINPRNDRTNYNEKFKTRFTISVDRSKNTLYLQMDSLRAEDTAVYFCALGGGYAMDYWGQGTLVTVSSTREQKLISEEDGSGIQNPDPAVYQLRDSKSSDKSVCLFTDFDSQTNVSQSKDSDVYITDKCVLDMRSMDFKSNSAVAWSNKSDFACANAFNNSIIPEDTFFPSSDVPCDVKLVEKSFETDTNLNFQNLSVIGFRILLLKVAGFNLLMTLRLWSSRAKRSGSGVKQTLNFDLLKLAGDVESNPGPSRGHMTEYKPTVRLATRDDVPRAVRTLAAAFADYPATRHTVDPDRHIERVTELQELFLTRVGLDIGKVWVADDGAAVAVWTTPESVEAGAVFAEIGPRMAELSGSRLAAQQQMEGLLAPHRPKEPAWFLATVGVSPDHQGKGLGSAVVLPGVEAAERAGVPAFLETSAPRNLPFYERLGFTVTADVEVPEGPRTWCMTRKPGA |  | LoVo (+), A549 (+), |  |  | 63 days | LoVo (+), A549 (+),
